Results published in article PMC6071076, “Transcriptome-Wide Identification of an Aurone Glycosyltransferase with Glycosidase Activity from Ornithogalum saundersiae” (Genes, 2018).

Tests used:
[1] = substrate: O=C1/C(=C/c2ccc(O)c(O)c2)Oc2cc(O)ccc21; assay: HPLC glucosylation assay, Lineweaver-Burk; type: biochemical, Ornithogalum saundersiae; settings: 1 mM UDP-Glc fixed; sulfuretin 0-1 mM
Description: (§1) HPLC glucosylation assay, Lineweaver-Burk on OsUGT1

[2] = substrate: O=c1cc(-c2ccccc2)oc2c(O)c(O)ccc12; assay: HPLC glucosylation assay, Lineweaver-Burk; type: biochemical, Ornithogalum saundersiae; settings: 1 mM UDP-Glc fixed; 7,8-dihydroxyflavone 0-1 mM
Description: as §1

B1: OsUGT1 (Ornithogalum saundersiae) (protein)
chain: MEGKKQHVVLFPFMGQGHITPFLLLAELIHEYYPDYTITLVNTPLNIRNLQSSLPPGSKINLKSLPFDASSHGLPPDTENTKAIPFHLFINLFRASETLEPAFERLIAGITEEDGIPPLCIIADNFFSWTLHIARKFGVFHSTFLTSGAYGSALLFSLWKYLPHRNAYSDEFSLPDFPEIRLHHTQLSNILVVADGGDAWSVLLRRLNELCTRSDAVLVNTVKEFEARGLSMLREQLQGPIFPVGPLLCTSASHSMGMDLSDWLDSQPSASVLYVSFGSQNTIRASQMLKLAMALEATSRPFIWVIRPPVGFDVRVQFKSEWLPEGFEDRMRGTKQGFIVHQWAPQVEILSHPSTGAFLSHCGWNSVLESLVHGVPIIGWPLSAEQFYNSKFLMEEVGVCVEAARGNRESSEVKKEEVERAIEIVMDNEEIRRKAKETARVLKSALKEEENNTNVGSSLRGLKEFFQTALSKRVVT
For B1, the Km [1] was 159 ± 11 µM, the Vmax [1] was 3.47 µM/min and the Km [2] was 713 ± 69 µM. It also gave a Vmax [2] of 28.3 µM/min.
